Experimental findings from article PMC6695210, “Bipartite interface of the measles virus phosphoprotein X domain with the large polymerase protein regulates viral polymerase dynamics” (PLoS Pathogens, 2019) are described below.

First the molecules themselves.
B1: MeV phosphoprotein (P), wild type [measles virus (strain IC-B)] / MeV L_(1708), C-terminally truncated large polymerase protein lacking the methyltransferase domain [measles virus (strain IC-B)] (parent complex)
chain 1: MAEEQARHVKNGLECIRALKAEPIGSLAVEEAMAAWSEISDNPGQDRATCKEEEAGSSGLSKPCLSAIGSTEGGAPRIRGQGSGESDDDAETLGIPSRNLQASSTGLQCYHVYDHSGEAVKGIQDADSIMVQSGLDGDSTLSGGDDESENSDVDIGEPDTEGYAITDRGSAPISMGFRASDVETAEGGEIHELLKLQSRGNNFPKLGKTLNVPPPPNPSRASTSETPIKKGTDARLASFGTEIASLLTGGATQCARKSPSEPSGPGAPAGNVPECVSNAALIQEWTPESGTTISPRSQNNEEGGDYYDDELFSDVQDIKTALAKIHEDNQKIISKLESLLLLKGEVESIKKQINRQNISISTLEGHLSSIMIAIPGLGKDPNDPTADVELNPDLKPIIGRDSGRALAEVLKKPVASRQLQGMTNGRTSSRGQLLKEFQLKPIGKKVSSAVGFVPDTGPASRSVIRSIIKSSRLEEDRKRYLMTLLDDIKGANDLAKFHQMLMKIIMK
chain 2: MDSLSVNQILYPEVHLDSPIVTNKIVAILEYARVPHAYSLEDPTLCQNIKHRLKNGFSNQMIINNVEVGNVIKSKLRSYPAHSHIPYPNCNQDLFNIEDKESTRKIRELLKKGNSLYSKVSDKVFQCLRDTNSRLGLGSELREDIKEKIINLGVYMHSSQWFEPFLFWFTVKTEMRSVIKSQTHTCHRRRHTPVFFTGSSVELLISRDLVAIISKESQHVYYLTFELVLMYCDVIEGRLMTETAMTIDARYAELLGRVRYMWKLIDGFFPALGNPTYQIVAMLEPLSLAYLQLRDITVELRGAFLNHCFTEIHDVLDQNGFSDEGTYHELIEALDYIFITDDIHLTGEIFSFFRSFGHPRLEAVTAAENVRKYMNQPKVIVYETLMKGHAIFCGIIINGYRDRHGGSWPPLTLPLHAADTIRNAQASGEGLTHEQCVDNWKSFAGVRFGCFMPLSLDSDLTMYLKDKALAALQREWDSVYPKEFLRYDPPKGTGSRRLVDVFLNDSSFDPYDMIMYVVSGAYLHDPEFNLSYSLKEKEIKETGRLFAKMTYKMRACQVIAENLISNGIGKYFKDNGMAKDEHDLTKALHTLAVSGVPKDLKESHRGGPVLKTYSRSPVHTSTRNVKAEKGFVGFPHVIRQNQDTDHPENIETYETVSAFITTDLKKYCLNWRYETISLFAQRLNEIYGLPSFFQWLHKRLETSVLYVSDPHCPPDLDAHVPLCKVPNDQIFIKYPMGGIEGYCQKLWTISTIPYLYLAAYESGVRIASLVQGDNQTIAVTKRVPSTWPYNLKKREAARVTRDYFVILRQRLHDIGHHLKANETIVSSHFFVYSKGIYYDGLLVSQSLKSIARCVFWSETIVDETRAACSNIATTMAKSIERGYDRYLAYSLNVLKVIQQILISLGFTINSTMTRDVVIPLLTNNDLLIRMALLPAPIGGMNYLNMSRLFVRNIGDPVTSSIADLKRMILASLMPEETLHQVMTQQPGDSSFLDWASDPYSANLVCVQSITRLLKNITARFVLIHSPNPMLKGLFHDDSKEEDERLAAFLMDRHIIVPRAAHEILDHSVTGARESIAGMLDTTKGLIRASMRKGGLTSRVITRLSNYDYEQFRAGMVLLTGRKRNVLIDKESCSVQLARALRSHMWARLARGRPIYGLEVPDVLESMRGHLIRRHETCVICECGSVNYGWFFVPSGCQLDDIDKETSSLRVPYIGSTTDERTDMKLAFVRAPSRSLRSAVRIATVYSWAYGDDDSSWNEAWLLARQRANVSLEELRVITPISTSTNLAHRLRDRSTQVKYSGTSLVRVARYTTISNDNLSFVISDKKVDTNFIYQQGMLLGLGVLETLFRLEKDTGSSNTVLHLHVETDCCVIPMIDHPRIPSSRKLELRAELCTNPLIYDNAPLIDRDATRLYTQSHRRHLVEFVTWSTPQLYHILAKSTALSMIDLVTKFEKDHMNEISALIGDDDINSFITEFLLIEPRLFTIYLGQCAAINWAFDVHYHRPSGKYQMGELLSSFLSRMSKGVFKVLVNALSHPKIYKKFWHCGIIEPIHGPSLDAQNLHTTVCNMVYTCYMTYLDLLLNEELEEFTFLLCESDEDVVPDRFDNIQAKHLCVLADLYCQPGTCPPIRGLRPVEKCAVLTDHIKAEARLSPAGSSWNINPIIVDHYSCSLTYLRRGSIKQIRLRVDPGFIFDALAEVNVSQPKVGSN

Variants of B1 are the subject of the first assay. The experiment in a line: co-immunoprecipitation (IP anti-HA of P, immunoblot of L anti-FLAG, densitometry); lysates of transiently transfected cells, lysed 24 hours after transfection; IP at 4°C; parent: 100; read off a plot.
Take chain 1 F497D: the percent of parent was ~120 % of wild type P.
For the variant chain 1 D486R, the percent of parent was ~130 % of wild type P.
The same measure, in the same setting: the result for chain 1 K469E reads ~75 % of wild type P.
In the case of chain 1 S462R, the percent of parent was ~75 % of wild type P.
As for chain 1 R465E, the percent of parent is ~62 % of wild type P.
The same measure, in the same setting: the value for chain 1 T483R was ~85 % of wild type P; that for chain 1 D493K was ~150 % of wild type P.
Regarding chain 1 R479E, the percent of parent is ~82 % of wild type P.

Variants of B1 are the subject of the next assay. The assay is described as above. This is another data set of the same source.
For chain 1 L377A, chain 1 G378A, chain 1 K379A, chain 1 D380A, the percent of parent is ~78 % of wild type P.
Same read-out and setting: the value for chain 1 K440A, chain 1 P441A, chain 1 I442A, chain 1 G443A was ~75 % of wild type P; that for chain 1 S447A, chain 1 S448A, chain 1 V450A was ~92 % of wild type P; that for chain 1 P396A, chain 1 I397A, chain 1 I398A, chain 1 G399A was ~22 % of wild type P.
On to chain 1 G431A, chain 1 Q432A, chain 1 L433A, chain 1 L434A, for which the percent of parent was ~85 % of wild type P.
On the same count and under the same terms, the result for chain 1 E408A, chain 1 V409A, chain 1 L410A reads ~30 % of wild type P; that for chain 1 R404A, chain 1 L406A, ~14 % of wild type P; that for chain 1 D383A, chain 1 P384A, chain 1 T385A, ~55 % of wild type P.
Still for that read-out and setting: the value for chain 1 D401A, chain 1 S402A, chain 1 G403A, chain 1 R404A was ~19 % of wild type P.

In a further assay the parent is B1. The description is as above. The source holds these as a separate data set.
In the case of chain 1 L363A, chain 1 E364A, the percent of parent is ~20 % of wild type P.
Consider chain 1 E364A, for which the percent of parent was ~44 % of wild type P.
The same measure, in the same setting: the value for chain 1 L363A was ~38 % of wild type P.
Still for that read-out and setting: the value for chain 1 S361A was ~85 % of wild type P.
As for chain 1 S361A, chain 1 T362A, the percent of parent was ~95 % of wild type P.

Another assay covers variants of B1. Described as above. This is another data set of the same source.
In the case of chain 1 I374A, chain 1 P375A, chain 1 G376A, chain 1 L377A, the percent of parent was ~9 % of wild type P.
The same measure, in the same setting: the result for chain 1 MAEEQARHVKNGLECIRALKAEPIGSLAVEEAMAAWSEISDNPGQDRATCKEEEAGSSGLSKPCLSAIGSTEGGAPRIRGQGSGESDDDAETLGIPSRNLQASSTGLQCYHVYDHSGEAVKGIQDADSIMVQSGLDGDSTLSGGDDESENSDVDIGEPDTEGYAITDRGSAPISMGFRASDVETAEGGEIHELLKLQSRGNNFPKLGKTLNVPPPPNPSRASTSETPIKKGTDARLASFGTEIASLLTGGATQCARKSPSEPSGPGAPAGNVPECVSNAALIQEWTPESGTTISPRSQNNEEGGDYYDDELFSDVQDIKTALAKIHEDNQKIISKLESLLLLKGEVESIKKQINRQNISIAAAAGHLSSIMIAIPGLGKDPNDPTADVELNPDLKPIIGRDSGRALAEVLKKPVASRQLQGMTNGRTSSRGQLLKEFQLKPIGKKVSSAVGFVPDTGPASRSVIRSIIKSSRLEEDRKRYLMTLLDDIKGANDLAKFHQMLMKIIMK [chain 1 S361A, chain 1 T362A, chain 1 L363A, chain 1 E364A] reads ~3 % of wild type P; that for chain 1 G365A, chain 1 H366A, chain 1 L367A, chain 1 S368A, ~12 % of wild type P.
On the same count and under the same terms, the result for chain 1 S369A, chain 1 I370A, chain 1 M371A, chain 1 I372A reads ~14 % of wild type P.

The variants in a further assay derive from B1. The description is as above. The source holds these as a separate data set.
For the variant chain 1 V463R, the percent of parent is ~5 % of wild type P.
For the variant chain 1 M502R, the percent of parent was ~120 % of wild type P.
As for chain 1 S470R, the percent of parent was ~65 % of wild type P.
Same read-out and setting: the value for chain 1 A495R was ~78 % of wild type P.
Same read-out and setting: the value for chain 1 S466R was ~20 % of wild type P; that for chain 1 A491R was ~120 % of wild type P.
Consider chain 1 H498E, for which the percent of parent was ~18 % of wild type P.
